T1: carrier free RGMa (R&D Systems) (UniProt Q96B86 48-422, limits assumed)
T1 construct: also called RGMa-CF
T1 sequence (looked up): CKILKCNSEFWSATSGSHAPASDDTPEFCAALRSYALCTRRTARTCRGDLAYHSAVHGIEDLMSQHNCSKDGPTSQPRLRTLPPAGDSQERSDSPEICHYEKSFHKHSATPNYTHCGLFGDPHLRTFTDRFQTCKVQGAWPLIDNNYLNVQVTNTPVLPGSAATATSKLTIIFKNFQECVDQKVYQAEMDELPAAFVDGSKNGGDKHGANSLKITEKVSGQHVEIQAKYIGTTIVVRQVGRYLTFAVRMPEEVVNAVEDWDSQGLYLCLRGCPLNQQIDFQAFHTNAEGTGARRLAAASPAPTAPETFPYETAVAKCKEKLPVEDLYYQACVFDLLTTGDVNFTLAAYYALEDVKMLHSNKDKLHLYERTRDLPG

B1: 1A-2860-475 (antibody, V domains shown)
VH: DVLLQESGPDLVKPSQSLSLTCTVTGYSISSGYSWHWIRQFPGNKLEWMAYIHYTGNTNYNPSLKSRISITRDTSKNQFFLHLNSVTTEDTATYYCALFGLSGFWGQGTLVTVSA
VL: DVLMTQTPLSLPVSLGDQASISCRSSQTIVHSNGNTYLDWYLQKPGQSPKVLIYKVSNRFSGVPDRFSGSGSGTDFTLKISRVEAEDLGVYFCLQGSHVPWTFGGGTQLEIKR
notes: The parent line 1A-2860 and subclone 1A-2860-177 used in the assays are treated here as the same antibody; also called 1A-2860-177
B2: 1A-2989-187 (antibody, V domains shown)
VH: EVQLQQSGAELVRSGASVKLSCTASGFNIRDFYIHWVKQRPEQGLEWLGWIDPENGDIEYAPKFQGKATMTADTSSNTAYLQLNSLTSEDTALYYCNGNGYYLDYWGQGTTLTVSS
VL: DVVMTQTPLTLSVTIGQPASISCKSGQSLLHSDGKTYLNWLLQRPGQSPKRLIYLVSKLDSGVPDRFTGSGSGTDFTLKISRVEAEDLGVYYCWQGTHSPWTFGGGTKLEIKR
B3: 1B-3363-715 (antibody, V domains shown)
VH: DVQLQESGPDLVKPSQSLSLTCTVTGYSITSGYSWHWIRQFPGNKLEWMGYIHYSGNTDYNPSLKSRISFTRDTSKNQFFLQLNSVTTEDTATYFCAIGTGPWGQGTTLTVSS
VL: DVLMTQTPLSLPVSLGDQASISCRSSQNIVHSNGHTYLEWYLQKPGQSPKLLIYKVSNRFSGVPDRFSGSGSGTDFTLKISRVEAEDLGVYYCFQGSHVPWTFGGGTKLEIKR
notes: The parent line 1B-3363 and subclone 1B-3363-502 used in the assays are treated here as the same antibody; also called 1B-3363-502

molecular target: T1, carrier free RGMa (R&D Systems); test: EIA on coated carrier-free RGMa (summary of specificity)
Description: Clones were then tested for cross-reactivity with RGMa and RGMb by EIA. Carrier free RGMa, RGMb, or RGMc (R&D Systems) was coated on the solid phase of micro-titer EIA plates at 0.5 ug/mL. After the antigen had been coated on the solid phase, it was removed and any open binding sites on the plates were blocked using fish gel block solution. The wells were washed with distilled water following this incubation. Cell supernatants and control reagents were added to the blocked plates and allowed to incubate at room temperature for at least one hour. The negative control was a purified mouse mAb from a different antigen system. The positive control for RGMa, RGMb, & RGMc was a goat anti-RGMa, RGMb, or RGMc polyclonal antibody (R&D Systems). Following this incubation, the solutions were removed from the plates and they were washed with distilled water. Donkey anti-Goat IgG-HRPO diluted to approximately 200 ng/mL in block solution was added to the plates with the positive control test samples and goat anti-mouse IgG-HRPO (Jackson Immunoresearch) diluted to approximately 200 ng/mL in block solution was added to the plates with the fusion #1 test samples. All plates were allowed to incubate for 30 minutes at room temperature. The plates were washed with distilled water and o-phenylenediamine substrate was used as the chromogen to generate signal. Plates were read at 492 nm and the results were analyzed.

Binding result, no binding:
B1
B2
B3

Reference: patent US20130330359A1 (AbbVie / Abbott, published 2013)
